Assay results taken from US9284541B2, “Methods and compositions for protein labeling using lipoic acid ligases” (Massachusetts Institute of Technology, priority 2007, dated 2016).

Substrate: [N-]=[N+]=NCCCCCCCC(=O)O
Experiment: Measurement of LplA-probe ligation kinetics (HPLC)
Format: biochemical, E. coli
Conditions: other: ligation to E2p, 200 nM LplA; pH 7.0; 30.0 °C
Experimental: To measure the kcat for LplA ligation of lipoic acid to E2p, 50 nM LplA was combined with 200 μM E2p, 750 μM lipoic acid, […], and 2 mM magnesium acetate in 25 mM sodium phosphate pH 7.0. The reaction was initiated with addition of 1 mM ATP to the pre-warmed (30° C.) mixture. The reaction was incubated at 30° C., and 90 μL aliquots were removed every 5 minutes and quenched with 50 mM EDTA (final concentration). Samples were analyzed by C18 reverse-phase HPLC as described in the “Methods” section. Measurements were performed in triplicate. A calibration curve was obtained that correlated the ratio of integrated HPLC peak areas (E2p:E2p-probe) to the actual protein ratio, in order to compensate for differences in the extinction coefficients of E2p and lipoylated E2p. The amount of product obtained at each time point was plotted against time, to obtain the Vmax of the reaction. From this, the kcat value was obtained using the equation Vmax=kcat [E]total.
90 μL aliquots were removed from the 30° C. reactions at 5 minutes intervals, up to 30 minutes, and quenched with 50 mM EDTA (final concentration). Samples were analyzed by HPLC as above. The amount of product obtained at each time point was plotted against time, to obtain the initial velocity for each concentration of azide 7. […] From the Vmax value, kcat was calculated using the equation Vmax=kcat [E]total.

B1: E. coli LplA (Escherichia coli K-12) (protein)
chain: STLRLLISDSYDPWFNLAVEECIFRQMPATQRVLFLWRNADTVVIGRAQNPWKECNTRRMEEDNVRLARRSSGGGAVFHDLGNTCFTFMAGKPEYDKTISTSIVLNALNALGVSAEASGRNDLVVKTVEGDRKVSGSAYRETKDRGFHHGTLLLNADLSRLANYLNPDKKKLAAKGITSVRSRVTNLTELLPGITHEQVCEAITEAFFAHYGERVEAEIISPNKTPDLPNFAETFARQSSWEWNFGQAPAFSHLLDERFTWGGVELHFDVEKGHITRAQVFTDSLNPAPLEALAGRLQGCLYRADMLQQECEALLVDFPEQEKELRELSAWMAGAVR
- Km: 127 ± 11 µM
